This note sets out measurements from patent US11634477 (dated 2023).

One assay deals with SARS-CoV RBD (SARS-CoV, UniProt P59594). The assay is described as follows: ELISA. In general terms: In an ELISA, binding on a coated surface is turned into a signal by an enzyme label.
A further assay has as its target SARS-CoV-2 RBD (SARS-CoV-2, UniProt P0DTC2). The assay is described as follows: ELISA.

B1: C154 (antibody, V domains shown)
VH: QVQLVESGGGVVQPGRSLRLSCAASGFTFSRYGMHWVRQAPGKGLEWVAVMSYDGSSKYYADSVKGRFTISRDNSKNTLCLQMNSLRAEDTAVYYCAKQAGPYCSGGSCYSAPFDYWGQGTLVTVSS
VL: DIQMTQSPSSLSASVGDRVTITCQASQGISNYLNWYQQKPGKAPKLLIYDASNLETGVPSRFSGSGSGTDFTFTISSLQPEDIATYYCQQYDNLPITFGQGTRLEIK
Broadly, the EC50 is the concentration that produces a half-maximal response. Lower therefore signals an effect from little substance. With B1, the values for the EC50 in the assay with SARS-CoV RBD and with SARS-CoV-2 RBD were 10.7 ng/mL and 2.92 ng/mL, respectively.

B2: C005 (antibody, V domains shown)
VH: QVQLVQSGPEVKKPGTSVKVSCKASGFTFTSSAVQWVRQARGQRLEWIGWIVVGSGNTNYAQKFQERVTITRDMSTSTAYMELSSLRSEDTAVYYCAAPHCSGGSCLDAFDIWGQGTMVTVSS
VL: not shown
On to B2, for which the EC50 with SARS-CoV RBD is more than 1000 ng/mL; with SARS-CoV-2 RBD, 4.41 ng/mL.

B3: C116 (antibody, V domains shown)
VH: QVQLVESGGGVVQPGRSLRLSCAASGFTYSTYAMHWVRQAPGKGLEWVAFISYDGSNKYYADSVKGRFTISRDNSKNTLYLQMNSLRAEDTAVYYCARDFYHNWFDPWGQGTLVTVSS
VL: NFMLTQPHSVSESPGKTVTISCTGSSGSIASNYVQWYQQRPGSAPTTVIYEDNQRPSGVPDRFSGSIDRSSNSASLTISGLKTEDEADYYCQSYDSGNHWVVFGGGTRLTVL
On to B3, for which the values for the EC50 with SARS-CoV RBD and with SARS-CoV-2 RBD were more than 1000 ng/mL and 37.6 ng/mL, respectively.

B4: C117 (antibody, V domains shown)
VH: QVQLVESGGGVVQPGRSLRLSCAASGFTFSTYAMHWVRQAPGEGLEWVAVISYDGSNTYYADSVKGRFTISRDNSKNTLYLQMNSLRAEDTAVYYCARDPIWFGELLSPPFVHFDYWGQGTLVTVSS
VL: QSVLTQPPSVSAAPGQKVTISCSGSSSNIGNNLVSWYQQLPGTAPKLLIYENNKRPSGIPDRFSGSKSGTSATLGITGLQTGDEADYYCGAWDSSLSAGGVYVFGTGTKVTVL
For the molecule B4, the EC50 in the assay with SARS-CoV RBD was more than 1000 ng/mL; with SARS-CoV-2 RBD it was 5.38 ng/mL.

B5: C216 (antibody, V domains shown)
VH: EVQLVESGGGLVQPGGSLRLSCAASGFTFSSYDMHWVRQATGKGLEWVSAIGTAGDTYYPDSVKGRFTISRENAKNSLYLQMNSLRAGDTAVYYCARDRGSSGWYGWYFDLWGRGTLVTVSS
VL: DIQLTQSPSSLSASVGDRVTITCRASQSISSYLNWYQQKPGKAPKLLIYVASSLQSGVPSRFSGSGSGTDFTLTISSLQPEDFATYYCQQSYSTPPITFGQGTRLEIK
B5: the concentration giving a half-maximal response (EC50) with SARS-CoV RBD was more than 1000 ng/mL; in the assay with SARS-CoV-2 RBD it was 9.53 ng/mL.

B6: C009 (antibody, V domains shown)
VH: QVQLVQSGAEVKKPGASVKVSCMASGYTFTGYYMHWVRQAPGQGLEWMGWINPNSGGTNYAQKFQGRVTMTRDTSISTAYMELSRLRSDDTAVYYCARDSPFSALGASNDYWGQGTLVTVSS
VL: QSALTQPPSASGSPGQSVTISCTGTSSDVGGYNYVSWYQQHPGKAPKLMIYEVSKRPSGVPDRFSGSKSGNTASLTVSGLQAEDEAEYYCSSDAGSNNVVFGGGTKLTVL
Turning to B6, the EC50 was more than 1000 ng/mL with SARS-CoV RBD and 1.8 ng/mL with SARS-CoV-2 RBD.

B7: C123 (antibody, V domains shown)
VH: EVQLVESGGGLIQPGGSLRLSCAASGVTVSRNYMSWVRQAPGKGLEWVSVIYSGGSTYYADSVKGRFTISRDNSKNTLYLQMNSLRAEDTAVYYCARDLSAAFDIWGQGTMVTVSS
VL: DIQLTQSPSFLSASVGDRVTITCRASQGISSYLAWYQQKPGKAPKLLIYAASTLQSGVPSRFSGSGSGTEFTLTISSLQPEDFATYYCQQLNSYPPAFGQGTRLEIK
For B7, the EC50 with SARS-CoV RBD was more than 1000 ng/mL; with SARS-CoV-2 RBD, 1.92 ng/mL.

B8: C141 (antibody, V domains shown)
VH: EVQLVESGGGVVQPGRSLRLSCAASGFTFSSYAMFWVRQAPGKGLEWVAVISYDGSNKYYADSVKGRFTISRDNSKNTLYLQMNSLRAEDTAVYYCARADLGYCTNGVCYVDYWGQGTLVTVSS
VL: NFMLTQPHSVSESPGKTVTISCTGSSGSIASNYVQWYQQRPGSAPTTVIYEDNQRPSGVPDRFSGSIDSSSNSASLTISGLKTEDEADYYCQSYDSSNWVFGGGTKLTVL
In the case of B8, the EC50 was more than 1000 ng/mL in the assay with SARS-CoV RBD and 1.71 ng/mL with SARS-CoV-2 RBD.

B9: C138 (antibody, V domains shown)
VH: EVQLVESGGGLVQPGGSLRLSCAASGFTFSTYWMSWVRQPPGKGLEWVANIKQDGSEKYYVDSVKGRFTISRDNAKNSLYLQMNSLRADDTAVYYCAGGTWLRSSFDYWGQGTLVTVSS
VL: NFMLTQPHSVSESPGKTVTISCTGSSGSIASNYVQWYQQRPGSAPTTVIYEDNQRPSGVPDRFSGSIDSSSNSASLTISGLKTEDEADYYCQSYDSSNWVFGGGTKLTVL
Take B9: the EC50 with SARS-CoV RBD was more than 1000 ng/mL; with SARS-CoV-2 RBD it was 2.94 ng/mL.

B10: C103 (antibody, V domains shown)
VH: QVQLQQWGAGLLKPSETLSLTCAVSGGSLSGFYWTWIRQPPGKGLEWIGETNHFGSTGYKPSLKSRVTISVDMSRNQFSLKVTSVTAADTAVYYCARKPLLYSDFSPGAFDIWGQGTMVTVSS
VL: EIVLTQSPGTLSLSPGERATLSCRASQTVTANYLAWYQQKPGQAPRLLIYGASKRATGIPDRFSGSGSGTDFTLSISRLEPEDFAVYYCQQYTTTPRTFGGGTKVEIK
As for B10, the EC50 with SARS-CoV RBD was more than 1000 ng/mL; with SARS-CoV-2 RBD, 3.77 ng/mL.

B11: C104 (antibody, V domains shown)
VH: QVQLQQWGAGLLKPSETLSLSCAVYGGSLSGYYWSWIRQPPGKGLEWIGEINHFGSTGYNPSLKSRVTISVDTSKSQFSVKLSSVTAADTAVYYCARKPLLYSNLSPGAFDIWGQGTMVTVSS
VL: EIVLTQSPGTVSLSPGERATLSCWASQSVSASYLAWYQQKPGQAPRLLIYGASSRATGIPDRFSGSGSGTDFTLTISRLEPEDFAVYYCQQYGTTPRTFGGGTKVEIK
As to B11, the figures for the EC50 with SARS-CoV RBD and with SARS-CoV-2 RBD were more than 1000 ng/mL and 8.31 ng/mL, respectively.

B12: C022 (antibody, V domains shown)
VH: QVQLQESGPGLVKPSETLSVTCTVSGGSISSSRYYWGWIRQPPGKGLEWIGSIYYSGSTYYNPSLKSRVTISVDTSKNQFSLKLSSVTAADTAVYYCARHAAAYYDRSGYYFIEYFQHWGQGTLVTVSS
VL: DIQMTQSPSTLSASVGDSVTITCRASQSISSWLAWYQQKPGKAPKLLIYKASSLESGVPSRFSGSGSGTEFTLTISSLQPDDFATYYCQQYNNYRYTFGQGTKLEIK
Consider B12, for which the EC50 was 5.99 ng/mL with SARS-CoV RBD and 2.4 ng/mL in the assay with SARS-CoV-2 RBD.

B13: C008 (antibody, V domains shown)
VH: EVQLVESGGGVVQPGRSLRLSCAASGFTFSSYGMHWVRQAPGKGLEWVTVISYDGRNKYYADSVKGRFTISRDNSKNTLYLQMNSLRAEDTAVYYCAREFGDPEWYFDYWGQGTLVTVSS
VL: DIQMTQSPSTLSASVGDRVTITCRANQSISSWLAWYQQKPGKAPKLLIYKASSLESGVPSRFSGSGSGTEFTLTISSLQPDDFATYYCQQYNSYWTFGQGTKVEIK
On to B13, for which the results for the 50% effective concentration (EC50) with SARS-CoV RBD and with SARS-CoV-2 RBD were more than 1000 ng/mL and 4.63 ng/mL, respectively.

B14: C164 (antibody, V domains shown)
VH: EVQLVESGGGLVQPGGSLRLSCAASGFSVSTKYMTWVRQAPGKGLEWVSVLYSGGSDYYADSVKGRFTISRDNSKNALYLQMNSLRVEDTGVYYCARDSSEVRDHPGHPGRSVGAFDIWGQGTMVTVSS
VL: QSALTQPASVSGSPGQSITISCTGTSNDVGSYTLVSWYQQYPGKAPKLLIFEVTKRSSGISNRFSGSKSGNTASLTISGLQGEDEADYYCCSYAGASTFVFGGGTKLTVL
For B14, the EC50 is more than 1000 ng/mL with SARS-CoV RBD and 2.06 ng/mL in the assay with SARS-CoV-2 RBD.

B15: C130 (antibody, V domains shown)
VH: QVQLVQSGAEVKKPGASVKVSCKASGYTFTNYYMHWVRQAPGQGLEWMGIINPSGGSTGYAQKFQGRVTMTRDTSTSTVYMELSSLRSEDTAVYYCARSRPTPDWYFDLWGRGTLVTVSS
VL: SYELTQPPSVSVAPGKTARITCGGNNIGSKSVHWYQQKPGQAPVLVIYYDSDRPSGIPERFSGSNSGNTATLTISRVEAGDEADYYCQVWDSSSDHPGVVFGGGTKLTVL
As for B15, the EC50 with SARS-CoV RBD was more than 1000 ng/mL; in the assay with SARS-CoV-2 RBD, 2.05 ng/mL.

B16: C121 (antibody, V domains shown)
VH: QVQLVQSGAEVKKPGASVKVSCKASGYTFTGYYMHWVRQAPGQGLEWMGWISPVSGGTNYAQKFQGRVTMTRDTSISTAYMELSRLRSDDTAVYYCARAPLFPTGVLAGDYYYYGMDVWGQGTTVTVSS
VL: QSALTQPASVSGSPGQSITISCTGTSSDVGSYNLVSWYQQHPGKAPKLMIYEGSKRPSGVSNRFSGSKSGNTASLTISGLQAEDEADYYCCSYAGSSTLVFGGGTKLTVL
For the molecule B16, the EC50 is more than 1000 ng/mL in the assay with SARS-CoV RBD and 2.85 ng/mL with SARS-CoV-2 RBD.

B17: C150 (antibody, V domains shown)
VH: EVQLVESGGGLVQPGGSLRLSCVASGFTFSSYWMHWVRQVPGKGPVWVSHINSEGSSTNYADSVRGRFTISRDNAKDTLYLQMNNLRAEDTAVYYCARPTAVAAAGNYFYYYGMDVWGQGTTVTVSS
VL: QSALTQPASVSGSPGQSITISCTGTSSDVGYYNFVSWYQQHPGKAPKLMIYEVSNRPSGVSNRFSGSKSGNTASLIISGLQAEDEADYYCSSYRSSSTLVFGGGTKLTVL
As for B17, the EC50 with SARS-CoV RBD is more than 1000 ng/mL; with SARS-CoV-2 RBD, 8.11 ng/mL.

B18: C215 (antibody, V domains shown)
VH: EVQLLESGGGLVQPGGSLRLSCAASGFTFSSYAMSWVRQAPGKGLEWVSAITDSGDGTFYADSVKGRFTISRDNSKNTLYLQMNSLRAEDTAVYYCASEEDYSNYVGWFDPWGQGTLVTVSS
VL: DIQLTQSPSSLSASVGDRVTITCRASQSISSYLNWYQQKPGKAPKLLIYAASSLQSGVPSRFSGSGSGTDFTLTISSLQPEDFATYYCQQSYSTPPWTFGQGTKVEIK
In the case of B18, the values for the EC50 with SARS-CoV RBD and with SARS-CoV-2 RBD were 17.9 ng/mL and 5.33 ng/mL, respectively.

B19: C211 (antibody, V domains shown)
VH: EVQLVESGGGLVQPGGSLRLSCAASEFTVSSNYMSWVRQAPGKGLEWVSVIYSGGSTFYADSVKGRFTISRDNSKNTLYLQMNSLRPEDTAVYYCARDYGDFYFDFWGQGTLVTVSS
VL: EIVMTQSPATLSVSPGERATLSCRASQSVSSNLAWYQQKPGQGPRLLIYGASTRATGIPARFSGSGSGTEFTLTISSLQSEDFAVYYCQQYNNWPRTFGQGTKVEIK
For B19, the half-maximal effective concentration (EC50) was more than 1000 ng/mL with SARS-CoV RBD and 2.82 ng/mL in the assay with SARS-CoV-2 RBD.
